# Reference: EP4219720A2 (Caribou Biosciences, Inc., dated 2023)
# B1: Strep-tag II-HRV3C-Cse2 (other)
# chain: MASWSHPQFEKGALEVLFQGPGYQMADEIDAMALYRAWQQLDNGSCAQIRRVSEPDELRDIPAFYRLVQPFGWENPRHQQALLRMVFCLSAGKNVIRHQDKKSEQTTGISLGRALANSGRINERRIFQLIRADRTADMVQLRRLLTHAEPVLDWPLMARMLTWWGKRERQQLLEDFVLTTNKNA
# notes: The tagged subunit by which the CasBCDE complex was captured on Strep-Tactin resin
# B2: NLS-GGS-FokISharkey-30aa-linker-Cas8 (after TEV cleavage) (other)
# chain: SNMPKKKRKVQLVKSELEEKKSELRHKLKYVPHEYIELIEIARNPTQDRILEMKVMEFFMKVYGYRGEHLGGSRKPDGAIYTVGSPIDYGVIVDTKAYSGGYNLPIGQADEMQRYVEENQTRNKHINPNEWWKVYPSSVTEFKFLFVSGHFKGNYKAQLTRLNHITNCNGAVLSVEELLIGGEMIKAGTLTLEEVRRKFNNGEINFSGSETPGTSESATPESGGSGSSGGSGSSGGMNLLIDNWIPVRPRNGGKVQIINLQSLYCSRDQWRLSLPRDDMELAALALLVCIGQIIAPAKDDVEFRHRIMNPLTEDEFQQLIAPWIDMFYLNHAEHPFMQTKGVKANDVTPMEKLLAGVSGATNCAFVNQPGQGEALCGGCTAIALFNQANQAPGFGGGFKSGLRGGTPVTTFVRGIDLRSTVLLNVLTLPRLQKQFPNESHTENQPTWIKPIKSNESIPASSIGFVRGLFWQPAHIELCDPIGIGKCSCCGQESNLRYTGFLKEKFTFTVNGLWPHPHSPCLVTVKKGEVEEKFLAFTTSAPSWTQISRVVVDKIIQNENGNRVAAVVNQFRNIAPQSPLELIMGGYRNNQASILERRHDVLMFNQGWQQYGNVINEIVTVGLGYKTALRKALYTFAEGFKNKDFKGAGVSVHETAERHFYRQSELLIPDVLANVNFSQADEVIADLRDKLHQLCEMLFNQSVAPYAHHPKLISTLALARATLYKHLRELKPQGGPSNG
# notes: The tag was removed with TEV protease; also called Fokl-Cas8 fusion protein
# B3: His6-HRV3C-Cse2 (other)
# chain: MAEHHHHHHGALEVLFQGPGYQMADEIDAMALYRAWQQLDNGSCAQIRRVSEPDELRDIPAFYRLVQPFGWENPRHQQALLRMVFCLSAGKNVIRHQDKKSEQTTGISLGRALANSGRINERRIFQLIRADRTADMVQLRRLLTHAEPVLDWPLMARMLTWWGKRERQQLLEDFVLTTNKNA
# notes: The tagged subunit by which the Cascade complex was captured on Ni-NTA resin
# What was measured:
# [1] = target: T1, Cas7, Cas6 and Cas5 of E. coli Type I-E Cascade with L3 crRNA (Escherichia coli K-12 MG1655, UniProt Q46899 2-363; Q46897 2-199; Q46898 1-224); test: co-expression in E. coli, Strep-Tactin capture by Strep-tag II on Cse2, SEC, Coomassie SDS-PAGE
# T1 construct: They also hold the L3 crRNA; This grouping is mine
# T1 sequence 1: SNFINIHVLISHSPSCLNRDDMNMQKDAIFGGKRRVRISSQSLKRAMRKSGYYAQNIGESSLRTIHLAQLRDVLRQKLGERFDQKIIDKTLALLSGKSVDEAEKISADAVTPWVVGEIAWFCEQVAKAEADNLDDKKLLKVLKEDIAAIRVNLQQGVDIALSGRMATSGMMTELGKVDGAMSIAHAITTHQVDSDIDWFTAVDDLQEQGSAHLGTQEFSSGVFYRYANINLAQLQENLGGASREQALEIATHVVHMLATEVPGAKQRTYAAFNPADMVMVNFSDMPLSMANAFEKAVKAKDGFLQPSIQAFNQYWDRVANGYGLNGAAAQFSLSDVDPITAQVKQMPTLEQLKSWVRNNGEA
# T1 sequence 2: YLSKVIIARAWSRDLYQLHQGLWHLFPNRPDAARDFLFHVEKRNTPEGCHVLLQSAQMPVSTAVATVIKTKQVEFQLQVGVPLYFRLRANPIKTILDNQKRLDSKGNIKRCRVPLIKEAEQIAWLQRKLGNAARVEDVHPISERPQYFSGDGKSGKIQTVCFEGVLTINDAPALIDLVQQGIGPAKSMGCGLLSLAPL
# T1 sequence 3: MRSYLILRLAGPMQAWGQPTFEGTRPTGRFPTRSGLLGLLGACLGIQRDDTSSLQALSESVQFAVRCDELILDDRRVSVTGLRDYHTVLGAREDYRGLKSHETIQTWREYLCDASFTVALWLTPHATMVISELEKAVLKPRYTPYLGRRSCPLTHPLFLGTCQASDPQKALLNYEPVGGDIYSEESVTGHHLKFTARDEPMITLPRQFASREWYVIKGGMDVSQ
# [2] = target: T2, CasBCDE complex (Strep-tag II-HRV3C-Cse2, Cas7, Cas5, Cas6) with J3/L3 crRNAs (Escherichia coli K-12 MG1655, UniProt Q46899 2-363; Q46898 1-224; Q46897 2-199); test: reconstitution from separately purified parts; tested by plasmid DNA cleavage
# T2 construct: It also holds a crRNA (J3 or L3 guide), so it is a ribonucleoprotein; Removal of the Strep tag is not described; also called Cas8-less Cascade complex; Cas8-minus Cascade complex
# T2 sequence 1: B1 chain
# T2 sequence 2: T1 sequence 1
# T2 sequence 3: T1 sequence 3
# T2 sequence 4: T1 sequence 2
# [3] = target: T3, Cas8, Cas7, Cas6 and Cas5 of E. coli Type I-E Cascade with J3 crRNA (Escherichia coli K-12 MG1655, UniProt Q46901 1-502; Q46899 2-363; Q46897 2-199; Q46898 1-224); test: co-expression in E. coli, Ni-NTA capture by His6 on Cse2, SEC, Coomassie SDS-PAGE
# T3 construct: They also hold the J3 crRNA; also called remaining Cascade subunits
# T3 sequence 1: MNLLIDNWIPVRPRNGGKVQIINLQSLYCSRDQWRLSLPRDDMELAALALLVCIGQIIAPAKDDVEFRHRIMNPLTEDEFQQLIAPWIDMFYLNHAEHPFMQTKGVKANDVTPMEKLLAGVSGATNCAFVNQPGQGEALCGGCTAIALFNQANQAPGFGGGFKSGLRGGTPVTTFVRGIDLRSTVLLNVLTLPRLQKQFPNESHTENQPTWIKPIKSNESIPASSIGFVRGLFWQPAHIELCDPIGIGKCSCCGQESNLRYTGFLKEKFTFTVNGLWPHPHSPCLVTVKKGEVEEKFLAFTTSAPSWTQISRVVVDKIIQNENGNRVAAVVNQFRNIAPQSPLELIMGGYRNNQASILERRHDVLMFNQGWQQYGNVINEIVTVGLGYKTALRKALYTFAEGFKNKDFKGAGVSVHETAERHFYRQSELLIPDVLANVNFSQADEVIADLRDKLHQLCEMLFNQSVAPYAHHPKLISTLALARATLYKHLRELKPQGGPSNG
# T3 sequence 2: T1 sequence 1
# T3 sequence 3: T1 sequence 2
# T3 sequence 4: T1 sequence 3
binder,measurement,setting,value
B1,binding result,[1],binds
B2,binding result,[2],binds
B3,binding result,[3],binds
